Measured values published in patent US20110200525A1 (published 2011).
Values joined by “and” are separate entries in the source; they are usually repeats but may differ in a detail not shown here. Identical values can stand only once.

Assays:
human EGFR wild type [1] = target: T1, human EGFR wild type (human, UniProt P00533 25-1210); assay: saturation binding of 125I-labelled VHH122 on an EGFR-expressing cell, specific binding in CPM
T1 construct: whole, on cells; also called EGFR on NR6W cells; EGFR in NR6W lysate

EGFRvIII ECD [2] = target: T2, EGFRvIII ECD (UniProt P00533 25-645); assay: SPR, Biacore 3000, EGFRvIII ECD on CM5 chip, VHH at 0.6 µM
T2 construct: extracellular domain; Deletion mutant; also called vIII mutant EGFR ECD
Description: (§1) The ka, kd, and KD values were determined for the binding of two VHH domains to the ECDs of EGFR and EGFRvIII by surface plasmon resonance (SPR). The ECDs were coupled to BIACORE® CM5 chips and VHH domains were sequentially flowed over each protein in the BIACORE® 3000 (GE Healthcare).

EGFR ECD (wild type) [3] = target: T3, EGFR ECD (wild type) (UniProt P00533 25-645, limits assumed); assay: SPR, Biacore 3000, EGFR ECD on CM5 chip, VHH at 0.6 µM
T3 construct: extracellular domain; the cell lines carry human EGFR; also called wild type EGFR ECD; EGFR extracellular domain
Description: as §1

EGFR ECD (wild type) [4] = target: T3, EGFR ECD (wild type); assay: SPR, Biacore 3000, ECD on CM5 chip; summary value
Description: as §1

EGFRvIII ECD [5] = target: T2, EGFRvIII ECD; assay: SPR, Biacore 3000, ECD on CM5 chip; summary value
Description: as §1

EGFR ECD (wild type) [6] = target: T3, EGFR ECD (wild type); assay: SPR, Biacore 3000, EGFR ECD on CM5 chip, VHH at 1.0 µM
Description: as §1

EGFRvIII ECD [7] = target: T2, EGFRvIII ECD; assay: SPR, Biacore 3000, EGFRvIII ECD on CM5 chip, VHH at 1.0 µM
Description: as §1

EGFR ECD (wild type) [8] = target: T3, EGFR ECD (wild type); assay: SPR, Biacore 3000, ECD coupled to CM5 chip
Description: as §1

EGFRvIII ECD [9] = target: T2, EGFRvIII ECD; assay: SPR, Biacore 3000, ECD coupled to CM5 chip
Description: as §1

human EGFR wild type [10] = target: T1, human EGFR wild type; assay: pull-down from NR6W lysate by His-tagged VHH on a nickel-chelate plate, Western blot with anti-EGFR mAb H11
Description: The VHH domains were allowed to bind to the plate wells for 16 hr at 4° C., and then the wells were washed 3 times with Tris-buffered saline containing 0.1% (v/v) TWEEN®-20 (TBST). NR6W lysate (450 μg) made with M-PER reagent (Pierce) plus EDTA-free protease inhibitors (Roche Applied Science) was added to each well and allowed to incubate for 16 hr at 4° C. The lysate was removed, and the wells were washed 15 times with TBST. Protein remaining on the well surface was eluted in SDS-PAGE sample buffer containing 1% (v/v) β-mercaptoethanol and 100 mM imidazole, preheated to 95° C. […] The blot was developed with SuperSignal West™ substrate (Pierce) and exposed to film.
NR6W lysate was added to each well and allowed to incubate for 16 hr at 4° C. The lysate was removed, the wells were washed and remaining protein eluted. Samples were subjected to SDS-PAGE and proteins were transferred to a PVDF membrane that was then probed for EGFR.

human EGFRvIII = target: T4, human EGFRvIII (human, UniProt P00533 25-1210); assay: phage format; assay not given
T4 construct: whole, on cells; Deletion mutant; also called EGFRvIII on NR6M cells; VIII mutant EGFR

human EGFR wild type [11] = target: T1, human EGFR wild type; assay: phage format; assay not given

B1: [125I]VHH122 (VHH)
VHH: EVQLQESGGGLVQAGDSLRLSCLVSGRSFNSYTMGWFRQAPGKEREFVAAILWSGPTTYYADSVKGRFTISRDNAKNTVYLQMNSLKPEDTAVYYCAAALGVLVLAPGNVYSYWGQGTQVTVSS
modifications: 125I label; labelled residues not stated
notes: not shown: C-terminal 6-His and myc tags from pHEN1-H6
For B1, the Kd (human EGFR wild type [1]) was 46 nM.

B2: VHH122 (VHH)
VHH: B1 VHH
notes: polyhistidine and myc tagged; also called VH122; not shown: C-terminal 6-His and myc tags from pHEN1-H6
B2 was tested, and the Ka (EGFRvIII ECD [2]) was 3.01e+07 M⁻¹, the Kd (EGFRvIII ECD [2]) was 33.2 nM and the koff (EGFRvIII ECD [2]) was 0.00304 s⁻¹. It also gave a kon (EGFRvIII ECD [2]) of 91300 M⁻¹ s⁻¹, a Ka (EGFR ECD (wild type) [3]) of 2.58e+07 M⁻¹ and a Kd (EGFR ECD (wild type) [3]) of 38.7 nM. The koff (EGFR ECD (wild type) [3]) was 0.00318 s⁻¹, the kon (EGFR ECD (wild type) [3]) was 82300 M⁻¹ s⁻¹ and the Kd (EGFR ECD (wild type) [4]) was roughly 40 nM. The Kd (EGFRvIII ECD [5]) was roughly 40 nM, the Ka (EGFR ECD (wild type) [6]) was 4.95e+07 M⁻¹ and 1.73e+07 M⁻¹ and the Kd (EGFR ECD (wild type) [6]) was 20.2 nM and 57.8 nM. The koff (EGFR ECD (wild type) [6]) was 0.00207 s⁻¹ and 0.00333 s⁻¹, the kon (EGFR ECD (wild type) [6]) was 57600 M⁻¹ s⁻¹ and 102000 M⁻¹ s⁻¹ and the Ka (EGFRvIII ECD [7]) was 1.82e+07 M⁻¹. It also gave a Kd (EGFRvIII ECD [7]) of 55 nM, a koff (EGFRvIII ECD [7]) of 0.00308 s⁻¹ and a kon (EGFRvIII ECD [7]) of 56100 M⁻¹ s⁻¹.

B3: VHH205 (VHH)
VHH: QVKLQESGGGLVQSGGSLRLSCIASGSTVSGNTMGWYRQAPGKQRELVAVISSVGVSNVAQSVKGRFAISRDNAKNTVYLQMSSLKPEDTAVYYCNALGTGRANWGQGTQVTVSS
notes: Free VHH used in SPR; not shown: C-terminal 6-His and myc tags from pHEN1-H6
B3 showed a Ka (EGFR ECD (wild type) [6]) of 1.34e+07 M⁻¹, a Kd (EGFR ECD (wild type) [6]) of 74.7 nM and a koff (EGFR ECD (wild type) [6]) of 0.0115 s⁻¹. The kon (EGFR ECD (wild type) [6]) was 154000 M⁻¹ s⁻¹.

B4: RP2 (VHH)
VHH: EVQLQESGGGLVQAGGSLRLSCAASGSTFSNEPFGWYRGAPGKLRELVGTISAGGNTNYVDAVKGRFMISRDNGRRMVYLQMNNLRPDDTAVYYCWNRGYWGQGTQVTVSS
notes: Random library clone used as negative control, as free VHH; also called random VHH domain RP2; control VHH RP2; not shown: C-terminal 6-His and myc tags from pHEN1-H6
B4: no binding (EGFR ECD (wild type) [8]); no binding (EGFRvIII ECD [9]); no binding (tested: 20 ug VHH per well) (human EGFR wild type [10]).

B5: VHH03 (VHH)
VHH: EVKLQQSGGGLVQPGGSLTLSCVTSGFTFSTYGMDWVRQAPGKGFEWVASISFGGGITNYGDFVKGRFTISRDNAKNTLYLHMNGLKPDDTAVYYCQMGSKRGQGTQVTVSS
B5: no binding (human EGFRvIII); binds (human EGFR wild type [11]).
